In the Human Domainome abundance scans (Beltran et al. 2025):

B1: Formin-binding protein 4, residues 200 to 261; numbered along this chain, Q8N3X1 (parent)
chain: SGWQYDTQCSLAGVGIEMGDWQEVWDENTGCYYYWNTQTNEVTWELPQYLATQVQGLQHYQP

Variants of: B1
Assay: abundance fitness (aPCA) (normalised: wild type 0, dead -1); higher = more abundant; growth selection in yeast, the domain comes from the species named
Conditions: Homo sapiens

Abundance fitness of substitutions, site by site:
Q22: Y -0.586 | P -0.905 | T -0.137
W21: P -0.812 | T -0.792 | I -0.859 | R -0.811 | K -1.05 | V -0.82 | G -0.791 | M -0.498 | A -0.948 | D -0.716 | Y -0.066 | H -0.297 | L -0.847 | N -1.1 | F -0.313 | E -1.03 | C -0.804
Y32: C -0.478 | Q -0.818 | E -0.673 | N -0.487 | L -0.633 | I -0.3 | S -0.567 | R -0.792 | V -0.677 | T -0.773 | K -1.02 | P -0.417 | W -0.543 | G -0.678 | A -0.502 | H -0.16 | M -0.511 | F -0.009
D20: P -0.252 | W -0.143 | V -0.237 | R -0.022 | M -0.29 | N -0.264 | Y -0.217 | S -0.295 | L -0.383 | T -0.339 | Q -0.287
N40: A -0.08
N28: H -0.229 | T -0.153 | I 0.281 | G 0.073 | M -0.32 | F -0.329 | C -0.022 | E -0.07 | V -0.507 | K 0.108 | D -0.002 | S -0.151 | P -0.133 | W -0.291 | L -0.233 | Y -0.245
G30: R 0.078 | N -0.15 | S 0.006 | F -0.381 | P -0.219 | I 0.052 | H -0.718 | V -0.191 | L -0.4 | K 0.129 | Q 0.049 | Y -0.473 | A -0.095 | W -0.23
Y34: H -0.873 | E -0.791 | T -0.847 | A -0.866 | D -1 | M -0.962 | V -0.669 | Q -0.946 | S -0.862 | G -0.664 | L -0.796 | F -0.18 | K -0.726 | C -0.927 | W -0.449 | P -1.21
C31: Y -0.063 | M -0.127 | T -0.094 | N 0.107 | L -0.183 | E -0.422 | H -0.017 | Q -0.038 | G -0.125 | P -0.742 | W -0.662 | A 0.01 | F 0.083 | K 0.066 | R 0.165 | I -0.326 | V -0.129 | S 0.031
T29: K 0.311 | W -0.362 | G -0.147 | Q -0.125 | C -0.066 | M -0.1 | R 0.117 | S 0.123 | A 0.162 | H -0.017 | L -0.036 | F -0.074 | N -0.086 | I -0.382 | Y 0.019 | P -0.172
E27: D 0.101 | A 0.043 | M -0.381 | Q -0.168 | H 0.516 | V -0.373 | P -0.349 | N -0.127 | R -0.112 | T -0.199 | W -0.601 | C -0.213 | Y -0.288 | G -0.066 | K 0.076 | F -0.319 | S -0.187 | I -0.174 | L -0.429
W25: T -0.381 | H -0.256 | C -0.263 | K -0.014 | Y -0.209 | R -0.287 | D -0.252 | A -0.207 | S -0.294 | G -0.557 | E -0.414 | V -0.358 | L -0.119 | M -0.129 | F -0.142 | N -0.853 | I -0.251 | P -0.376
